Experimental findings from paper PMC11672684 (Cell Reports, 2024) are described below.

In test [1] the target is H7 A/Anhui/1/2013 HA (Influenza A virus A/Anhui/1/2013 (H7N9), UniProt A0A024E3P0). As to the kind of experiment: BLI; […], dissociation 5 min; 1% BSA in PBS; 30°C; […]. The note with it: both partners purified. On the technique in general: BLI is a label-free optical method that tracks binding on a fibre tip over time.
Test [2] has as its target H5 HA (Influenza A virus H5, assay strain not …, UniProt A5A5L7). As to the kind of experiment: ELISA + BLI. To be noted: both partners purified. Background: In an ELISA, binding on a coated surface is turned into a signal by an enzyme label.

B1: 43_S0008 (antibody, V domains shown)
VH: QVQLVQSGAEVKKPGSSVKVSCKASGGTFRTFGISWVRQAPGQGLEWMGWIIPIIGTPNYAQKFQGRVIITADESSNTAYMELNSLKSEDTAVYYCAKEGRALLRYFDWLPLDAFDIWGQGTMVTVSS
VL: DIVLTQTPLSLPVSLGDQASISCRSSQSLVHSDGNTYLHWYLQKPGQSPKLLIYKVSNRFSGVPDRFSGSGSGTDFTLKISRVEAEDLGVYFCSQSTHVPPLTFGAGTKLELK
notes: also called mAb 43_S0008; IGHV1-69 + IGHD3-9 mAb 43_S0008; source: Expi293 cells, purified (protein A)
Turning to B1, the binding result in test [1] and in test [2] was “binds” throughout.
